System: MS2 coat protein
Assay: apparent KD of MS2 coat protein; higher = weaker reporter binding
Details: Eterna round: R107
Summary of the method: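 Apparent KD per design is the median of normalised cluster binding-curve fits. Designed RNA switches transcribed on-chip from Illumina sequencing clusters were titrated with SNAP-549-labelled MS2 coat protein in twofold steps from 0.7 or 1.5 nM to 3 µM, with 0.8–1.5 h down to 10–20 min per step. Buffer: 100 mM Tris-HCl pH 7.5, 80 mM KCl, 4 mM MgCl2, without or with constant ligand.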

[1] = input ligand: theophylline 20 uM
[2] = input ligand: tryptophan 2.4 mM
[3] = input ligand: theophylline 2 mM

Row | Sequence | apparent KD of MS2 coat protein (input ligand: arginine 13.2 mM) | apparent KD of MS2 coat protein [1] | apparent KD of MS2 coat protein [2] | apparent KD of MS2 coat protein (input ligand: none) | apparent KD of MS2 coat protein [3]
1 | AAGGGAGAAUCAGAUACCAGAGUAAGAUGGCAUGAUAAUUACAUGAGGAUCACCCAUGUACUCCCUUGGCAGCUGACAAUAUAUU [Exclusion Theophylline B GF 18] | 12.5 nM | 13.2 nM | 10.3 nM |  | 
2 | AUUAUAGUUUAUAAGGAAAUUGAAACAGAAGGAGCGUGAGUAAUCACAGGUAGGUCGCUGGUAGUACAUGAGGAUCACCCAUGUU [JR_Nu_SSArginiA_Sub019] | 21.9 nM | 32.2 nM | 22.4 nM | 24.1 nM | 26.5 nM
3 | AGCGAUAUGCAUGAUACCAGCUACAUGAGGAUCACCCAUGUGCGUCAGAAAUGACUGUGUAGCCCUUGGCAGCAUAGAGCAUGUA [Exclusion - Theophylline B (Freestyle 11)] | 35.2 nM | 46.2 nM | 38.4 nM |  | 
4 | AUAUGAUCAUGGGAUACCAGAAAUGGUAUUCCUUUAUUUCUUACAUGAGGAUCACCCAUGUUCCCUUGGCAGCUUAUGAUCAUAU [ETHB #5] | 53.7 nM | 85.8 nM | 67.9 nM |  | 
5 | UAUCCACAUGAGGAUCACCCAUGUAAGGAAGGAGCGGUGAAUGCACCAGGUAGGUCGCCUUGCUGAGGACUGUCGGUGGAUUCGU [Exclusion - Arginine A (Freestyle 22)] | 26.8 nM | 43.2 nM | 32 nM | 32.8 nM | 39.5 nM
6 | GGGCGCUAUCCCGCGAGGGAUAGCGUUCAACGAGGACCGGUACGGCCGCCACUCGAACGAGUGGUGACAUGAGGAUCACCCAUGU [Iaa] | 39.9 nM | 66.4 nM | 56.4 nM | 42.5 nM | 53.3 nM
7 | ACGGACAUGAGGAUCACCCAUGUGGCCGAAGGAGCGGGAAUUAACCCAGGUAGGUCGCGGAAAUUUUUUAAAUUAUUUUAAUUUU [Same State - Arginine A] | 14.4 nM | 21.5 nM | 17.3 nM | 17.1 nM | 18.7 nM
8 | UGUAUGGACUGAAGGAGCGGAUGAUAAUCUGAGGAUCACCCAGGUAAUAAGGCGAAAGCCAUCCAGGUAGGUCGCAGUCCAUACU | 40.9 nM | 96.9 nM | 103 nM | 82.9 nM | 111 nM
9 | ACACAUGAGGAUCACCCAUGUGCCCAUGAAGGAGCGUGGGAAACCACAGGUAGGUCGCAUGACAUGAGGAUCACCCAUGUUUAUU [Astarte] | 29 nM | 44.9 nM | 41.9 nM | 41.9 nM | 39.7 nM
10 | CGCACAUGAGGAUCACCCAUGUGAGGGCGGCGAGGACCGGUACGGCCGCCACUCGCAAAACAUGAGGAUCACCCAUGUGCCGCCG [SSTA DOUBLE!!! :-D #2] | 30.1 nM | 92.3 nM | 29.2 nM | 32.9 nM | 103 nM
11 | UGUCAUGGAAACAUGACUGGUUCUACCGGUCGAGGACCGGUACGGCCGCCACUCGAUUGGUGGCACAUGAGGAUCACCCAUGUUA [SS Tryp A #14] | 26.2 nM | 51.9 nM |  |  | 33.9 nM
12 | GAUACUAUGAAAGUAGUAUCUACGUGUUGACGAGGACCGGUACGGCCGCCACUCGACAUGAGGAUCACCCAUGUAUAGAAUAUGU [TrypA_2] | 25.1 nM | 39.2 nM |  |  | 31.9 nM
13 | AUGUCGUUGAAUAUAGCGGCUUGGAGUGAUACCAGUAUGAUCCAAUACCCUUGGCAGCAUUACAUGAGGAUCACCCAUGUUCCAG [SSTheo A #24] | 17.2 nM | 37.2 nM | 34 nM | 22.6 nM | 53.4 nM
14 | ACAUGAGGAUCACCCAUGUACAUGAGGGAAGGAGCGGUACAUGUGCCAGGUAGGUCGCCCAACAGCAUCAGCCAUGUACAACGGA [xxbmullin] | 29 nM | 87.4 nM | 52.3 nM | 56.8 nM | 69.5 nM
15 | AAUUGAAACAGAGGUAUAUACGGACAUUACCGAGGACCGGUACGGCCGCCACUCGACCUAAAACAUGAGGAUCACCCAUGUAGCA [theeternabot_exclusion_MS2_Trp_A_20] | 12.6 nM | 14.2 nM |  |  | 13.8 nM
16 | CGUUAAGAAUCGGCCGCCACUCCAUACGUGUGAAUCGCGGAUCGACAUGAGGAUCACCCAUGUCGGAGGACCGGGAUCCUCUUUC [theeternabot_sameState_MS2_Trp_B_12] | 28.2 nM | 49.2 nM |  |  | 48 nM
17 | AUAAUAAAGUCGGCCGCCACUAUAAACAUGAGGAACAUGAGGAUCACCCAUGUAUGAGGAUCACCUAGGACCGGGACAAAUAUUA [AstrosExyTryB#3] | 47.3 nM | 88.3 nM | 54.7 nM | 57.3 nM | 63.1 nM
18 | AUAAGGUAUCUGCUAUCCUCAUGAGCAGAUACCAGCUAGGAAACUAGCCCUUGGCAGCUGCAACAUGAGGAUCACCCAUGUAAUA [(T)'-(M)'-(T1)-(T2)-(M1)-(M2)_Design1] | 64.4 nM | 118 nM | 256 nM |  | 
19 | UAUGCACAUGAGGAUCACCCAUGUAUGGAAGGAGCGGUGAAUAAACCAGGUAGGUCGCCAUGGUGAGGGUCAUCUAUGUAAUCGU [Exclusion - Arginine A (Freestyle 5)] | 51 nM | 78.4 nM | 59.3 nM | 47.3 nM | 80.3 nM

Row | Sequence | apparent KD of MS2 coat protein (input ligand: arginine 13.2 mM) | apparent KD of MS2 coat protein [1] | apparent KD of MS2 coat protein [2] | apparent KD of MS2 coat protein (input ligand: none) | apparent KD of MS2 coat protein [3]
20 | UGUAACAUGAGGAUCACCCAUGUAAGUGAUACCAGAUAAGUAGUAGUCCCUUGGCAGCAUAUUGGGCGAGUGUAUAGUCUAUACG [Same State - Theophylline A (Freestyle 7)] | 39.9 nM | 69.8 nM | 49.7 nM |  | 
21 | UACUUGCUGACGGCCGCCACUAGAACAUGAGGAUCACCCAUGUACCUGGUCCUUCAUGGGUGGACUAGGACCGGGUCAGCAAGAU [(Trp1)-(Ms2)-(T)'-(M)'-(Trp2)_Design4] | 186 nM | 418 nM |  |  | 517 nM
22 | UUACACAUCUCGGCCGCCACUGGCUUCAAAAUAAUGUGUACAUGAGGAUCACCCAUGUCCGAGCUCAGGACCGGGAGCAAAGAAG [SS Tryp B #14] | 21.1 nM | 29.2 nM |  |  | 28.4 nM
23 | GGGAAAUGAAUAGAAUGAGAUGACACAGAAGGAGCGCGGAUUAACGCAGGUAGGUCGCUGACAACAUGAGGAUCACCCAUGUUUC [#10 Same State - Arginine A] | 13.7 nM | 17.6 nM | 14.1 nM | 14.2 nM | 18 nM
24 | AUACAUGAGGAUCACCCAUGUAUAGUUGAAGGAGCGACCGGUGGGUCAGGUAGGUCGCAGCGCAUGGCGUCCACGCGUGUAUGCC [#1 Exclusion - Arginine A Attempt #30 (Inspired by Pi)] | 10.7 nM | 16.4 nM | 11.1 nM | 10.7 nM | 11.3 nM
25 | CGGCCCUCAGAUGAGGAUCACCCAUCUGAUACCAGCCUGGAAACAGGCCCUUGGCAGCAGAAGGUCAUCAAAGAUGACCAAGCCG [TheoAX 30 #OpenEnded #AlternativeMS2] | 10 nM | 19.4 nM | 12 nM | 11.8 nM | 89.1 nM
26 | ACAUGACAACAUGAGGAUCACCCAUGUCAUCGAGGACCGGUACGGCCGCCACUCGGUCAAUAUGAUACUUGUCAUGAACAUGAGG [Exclusion Tryptophan A 2] | 19 nM | 25.7 nM |  |  | 21.3 nM
27 | AUACAUGAGGAUCACCCAUGUAAAGUUGAAGGAGCGACCAGAGGGUCAGGUAGGUCGCAACACAUGAGGAUCACCCAUGUAUCGA [DOUBLE!!! :-D #6] | 53.3 nM | 78.4 nM | 71.4 nM | 83.6 nM | 79.4 nM
28 | AUAAUAAUGUCGGCCGCCACUAUAAACAUGAGGAACAUGAGGAUCACCCAUGUAUGAGGAUCACCUAGGACCGGGACUAAUAUUA [AstrosExyTryB#5] | 33.9 nM | 57.1 nM |  |  | 52.9 nM
29 | UGGUACUAGGCGGCCGCCACUGGGUGAUACAUGAGGAUCACCCAUGUUUAAUGCCGAGAGGCAACUAGGACCGGGCCUAGUACAU | 101 nM | 339 nM |  |  | 586 nM
30 | AGCGCUGUGCAUGAUACCAGCUACAUGAGGAUCACCCAUGUGCGUCAGAAAUGACUGUGUAGCCCUUGGCAGCAUAAAGCAUGUA [Exclusion - Theophylline B (Freestyle 8)] | 19.7 nM | 26.6 nM | 19.6 nM |  | 
31 | ACUUCGCAUAGGAAAACUAUGUGAAGAAAUCGAGGACCGGUACGGCCGCCACUCGUCCUCAACAUGAGGAUCACCCAUGUAAUAA [Mat - Exclusion - Trytophan A - D5] | 21 nM | 24.3 nM |  |  | 23.9 nM
32 | GACAUGAGGAUCACCCAUGUUUGCUAUGAAGGAGCGUCGGAAAUGACAGGUAGGUCGCAUAGUAGACCUUGUAUUUCGUGUGUUU [#01 Exclusion - Arginine A] | 10.8 nM | 14.5 nM | 12 nM | 10.8 nM | 11.2 nM
33 | GCUGCCAUACGAAGGAGCGCUGUUGUAGUGAGGCGAACAUGAGGAUCACCCAUGUGGCAGCAGCAGGUAGGUCGCGUAUGGCAGC [EAB #13] | 13.7 nM | 35 nM | 26 nM | 18.6 nM | 33.9 nM
34 | ACAUGAGGAUCACCCAUGUUAAACACAGAAGGAGCGUGAAGGAACACAGGUAGGUCGCUGUACUUAUUGAGUAUUCACUCGAUAC [JR_Nu_SSArginiA_Sub028] | 14.9 nM | 16.5 nM | 13.3 nM | 12.5 nM | 12.8 nM
35 | AACAUGAGGAUCACCCAUGUGUCCUCGAAACGAGGACCGGUACGGCCGCCACUCGGCGUAUGUUGACGAAAAGUCAGCAUACGCA [Mat - Exclusion - Trytophan A - D11] | 81.8 nM | 209 nM |  |  | 255 nM
36 | AGCCCUGUACUAGAUACCAGCUACAUGAGGAUCACCCAUGUACGAUAAGACUGUCCAUGUAGCCCUUGGCAGCUGCUCGCAUGUA [#13 Exclusion-TheophyllineB] | 24.1 nM | 41.3 nM | 29.2 nM |  | 
37 | UCGCUCUGGGUGAAAUCCGGAGAUGUGGAAGGAGCGCUCGAAAGAGCAGGUAGGUCGCCAACGGACAUGAGGAUCACCCAUGUAC [Same State - Arginine A (Freestyle 20)] | 31 nM | 50 nM | 38.3 nM | 29.6 nM | 75.3 nM

Reference: the supplement of paper PMC9170038
